Reference: US9393271B2, “GHRH agonists for islet cell transplantation and function and the treatment of diabetes” (UNIVERSITY OF MIAMI, priority 2012, dated 2016)
Non-standard residues stand in square brackets, D forms with d. No end group written: not given here. *: point of attachment. Phe(F5) = N[C@@H](Cc1c(F)c(F)c(F)c(F)c1F)C(=O)O; Desaminotyrosyl = O=C(CCc1ccc(O)cc1)*; NMeY = CN[C@@H](Cc1ccc(O)cc1)C(=O)O; Agmatine = N=C(N)NCCCCN*; NMeA = CN[C@@H](C)C(=O)O; Nle = CCCC[C@H](N)C(=O)O; Orn = NCCC[C@H](N)C(=O)O; Abu = CC[C@H](N)C(=O)O; Aoc = NCCCCCCCC(=O)O; Ava = NCCCCC(=O)O; GABA = NCCCC(=O)O

T1: GHRH receptor in human pituitary membrane homogenates (human, UniProt Q02643)
T1 sequence: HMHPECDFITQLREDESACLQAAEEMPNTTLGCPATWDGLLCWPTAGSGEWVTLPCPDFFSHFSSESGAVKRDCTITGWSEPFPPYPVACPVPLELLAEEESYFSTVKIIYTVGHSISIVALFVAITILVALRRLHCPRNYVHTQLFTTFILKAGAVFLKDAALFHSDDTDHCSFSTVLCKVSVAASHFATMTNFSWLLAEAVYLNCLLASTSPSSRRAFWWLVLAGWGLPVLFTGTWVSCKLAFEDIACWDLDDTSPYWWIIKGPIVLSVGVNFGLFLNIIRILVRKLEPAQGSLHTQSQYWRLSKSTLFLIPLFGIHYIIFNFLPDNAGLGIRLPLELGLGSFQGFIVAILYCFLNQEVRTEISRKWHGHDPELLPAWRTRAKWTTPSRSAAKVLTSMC


Biological target: T1, GHRH receptor in human pituitary …
Test: ligand competition, 125I-JV-1-42 displaced, human pituitary membranes

Row | Binder | IC50 | relative affinity (binding potency) vs JI-38
1 | [NMeY]ADAIFTNSYR[Orn]VL[Abu]QLSAR[Orn]LLQDI[Nle]DR[Aoc]-NH2 (N-terminus assumed; SMILES CCCC[C@H](NC(=O)[C@@H](NC(=O)[C@H](CC(=O)O)NC(=O)[C@H](CCC(N)=O)NC(=O)[C@H](CC(C)C)NC(=O)[C@H](CC(C)C)NC(=O)[C@H](CCCN)NC(=O)[C@H](CCCNC(=N)N)NC(=O)[C@H](C)NC(=O)[C@H](CO)NC(=O)[C@H](CC(C)C)NC(=O)[C@H](CCC(N)=O)NC(=O)[C@H](CC)NC(=O)[C@H](CC(C)C)NC(=O)[C@@H](NC(=O)[C@H](CCCN)NC(=O)[C@H](CCCNC(=N)N)NC(=O)[C@H](Cc1ccc(O)cc1)NC(=O)[C@H](CO)NC(=O)[C@H](CC(N)=O)NC(=O)[C@@H](NC(=O)[C@H](Cc1ccccc1)NC(=O)[C@@H](NC(=O)[C@H](C)NC(=O)[C@H](CC(=O)O)NC(=O)[C@H](C)NC(=O)[C@H](Cc1ccc(O)cc1)NC)[C@@H](C)CC)[C@@H](C)O)C(C)C)[C@@H](C)CC)C(=O)N[C@@H](CC(=O)O)C(=O)N[C@@H](CCCNC(=N)N)C(=O)NCCCCCCCC(N)=O) [[N-Me-Tyr1, Orn12, Abu15, Orn21, Nle27, Asp28, Amc30]hGHRH(1-30)NH2] | 2.99 nM | 1.45 JI-38 = 1
2 | [NMeY][Abu]DAIFTNSYR[Orn]VL[Abu]QLSAR[Orn]LLQDI[Nle]SR[GABA]-NH2 (N-terminus assumed; SMILES CCCC[C@H](NC(=O)[C@@H](NC(=O)[C@H](CC(=O)O)NC(=O)[C@H](CCC(N)=O)NC(=O)[C@H](CC(C)C)NC(=O)[C@H](CC(C)C)NC(=O)[C@H](CCCN)NC(=O)[C@H](CCCNC(=N)N)NC(=O)[C@H](C)NC(=O)[C@H](CO)NC(=O)[C@H](CC(C)C)NC(=O)[C@H](CCC(N)=O)NC(=O)[C@H](CC)NC(=O)[C@H](CC(C)C)NC(=O)[C@@H](NC(=O)[C@H](CCCN)NC(=O)[C@H](CCCNC(=N)N)NC(=O)[C@H](Cc1ccc(O)cc1)NC(=O)[C@H](CO)NC(=O)[C@H](CC(N)=O)NC(=O)[C@@H](NC(=O)[C@H](Cc1ccccc1)NC(=O)[C@@H](NC(=O)[C@H](C)NC(=O)[C@H](CC(=O)O)NC(=O)[C@H](CC)NC(=O)[C@H](Cc1ccc(O)cc1)NC)[C@@H](C)CC)[C@@H](C)O)C(C)C)[C@@H](C)CC)C(=O)N[C@@H](CO)C(=O)N[C@@H](CCCNC(=N)N)C(=O)NCCCC(N)=O) [[N-Me-Tyr1, Abu2, Orn12, Abu15, Orn21, Nle27, Gab30]hGHRH(1-30)NH2] | 1.18 nM | 3.67 JI-38 = 1
3 | Ac-[NMeY][dA]DAIFTQSYR[Orn]VL[Abu]QLSAR[Orn]LLQDI[Nle]D[Agmatine] (SMILES CCCC[C@H](NC(=O)[C@@H](NC(=O)[C@H](CC(=O)O)NC(=O)[C@H](CCC(N)=O)NC(=O)[C@H](CC(C)C)NC(=O)[C@H](CC(C)C)NC(=O)[C@H](CCCN)NC(=O)[C@H](CCCNC(=N)N)NC(=O)[C@H](C)NC(=O)[C@H](CO)NC(=O)[C@H](CC(C)C)NC(=O)[C@H](CCC(N)=O)NC(=O)[C@H](CC)NC(=O)[C@H](CC(C)C)NC(=O)[C@@H](NC(=O)[C@H](CCCN)NC(=O)[C@H](CCCNC(=N)N)NC(=O)[C@H](Cc1ccc(O)cc1)NC(=O)[C@H](CO)NC(=O)[C@H](CCC(N)=O)NC(=O)[C@@H](NC(=O)[C@H](Cc1ccccc1)NC(=O)[C@@H](NC(=O)[C@H](C)NC(=O)[C@H](CC(=O)O)NC(=O)[C@@H](C)NC(=O)[C@H](Cc1ccc(O)cc1)N(C)C(C)=O)[C@@H](C)CC)[C@@H](C)O)C(C)C)[C@@H](C)CC)C(=O)N[C@@H](CC(=O)O)C(=O)NCCCCNC(=N)N) [[Ac-N-Me-Tyr1, D-Ala2, Gln8, Orn12, Abu15, Orn21, Nle27, Asp28, Agm29]hGHRH(1-29)] | 3.44 nM | 1.26 JI-38 = 1
4 | [Desaminotyrosyl][dA]DAIFT[NMeA]SYR[Orn]VL[Abu]QLSAR[Orn]LLQDI[Nle]D[Agmatine] (SMILES CCCC[C@H](NC(=O)[C@@H](NC(=O)[C@H](CC(=O)O)NC(=O)[C@H](CCC(N)=O)NC(=O)[C@H](CC(C)C)NC(=O)[C@H](CC(C)C)NC(=O)[C@H](CCCN)NC(=O)[C@H](CCCNC(=N)N)NC(=O)[C@H](C)NC(=O)[C@H](CO)NC(=O)[C@H](CC(C)C)NC(=O)[C@H](CCC(N)=O)NC(=O)[C@H](CC)NC(=O)[C@H](CC(C)C)NC(=O)[C@@H](NC(=O)[C@H](CCCN)NC(=O)[C@H](CCCNC(=N)N)NC(=O)[C@H](Cc1ccc(O)cc1)NC(=O)[C@H](CO)NC(=O)[C@H](C)N(C)C(=O)[C@@H](NC(=O)[C@H](Cc1ccccc1)NC(=O)[C@@H](NC(=O)[C@H](C)NC(=O)[C@H](CC(=O)O)NC(=O)[C@@H](C)NC(=O)CCc1ccc(O)cc1)[C@@H](C)CC)[C@@H](C)O)C(C)C)[C@@H](C)CC)C(=O)N[C@@H](CC(=O)O)C(=O)NCCCCNC(=N)N) [[Dat1, D-Ala2, N-Me-Ala8, Orn12, Abu15, Orn21, Nle27, Asp28, Agm29]hGHRH(1-29)] | 0.86 nM | 5.06 JI-38 = 1
5 | [NMeY][dA]DAI[Phe(F5)]TNSYR[Orn]VL[Abu]QLSAR[Orn]LLQDI[Nle]DR-NHMe [[N-Me-Tyr1, D-Ala2, Fpa5-6, Orn12, Abu15, Orn21, Nle27, Asp28]hGHRH(1-29)NH-CH3] | 0.87 nM | 5 JI-38 = 1
6 | [NMeY][dA]DAI[Phe(F5)]TNSYR[Orn]VL[Abu]QLSAR[Orn]LLQDI[Nle]D[Agmatine] [[N-Me-Tyr1, D-Ala2, Fpa5-6, Orn12, Abu15, Orn21, Nle27, Asp28, Agm29]hGHRH(1-29)] | 3.05 nM | 1.43 JI-38 = 1
7 | [NMeY]ADAIFTQSYR[Orn]VL[Abu]QLSAR[Orn]LLQDI[Nle]SR-NHMe (not fully specified) [[N-Me-Tyr1, Gln8, Orn12, Abu15, Orn21, Nle27]hGHRH(1-29)NH-CH3] | 1.08 nM | 4.03 JI-38 = 1
8 | [NMeY][dA]DAIFTNSYR[Orn]VL[Abu]QLSAR[Orn]LLQDI[Nle]D[Agmatine] [[N-Me-Tyr1, D-Ala2, Orn12, Abu15, Orn21, Nle27, Asp28, Agm29]hGHRH(1-29)] | 1.7 nM | 2.56 JI-38 = 1
9 | [NMeY]ADAIFTQSYR[Orn]VL[Abu]QLSAR[Orn]LLQDI[Nle]DR-NHMe (not fully specified) [[N-Me-Tyr1, Gln8, Orn12, Abu15, Orn21, Nle27, Asp28]hGHRH(1-29)NH-CH3] | 0.3 nM | 14.5 JI-38 = 1

The remaining binders from weak to strong by IC50, led by results:

Row | IC50 | relative affinity (binding potency) vs JI-38 | Binder
10 | 3.8 nM | 1.14 JI-38 = 1 | [NMeY]ADAIFTQSYR[Orn]VL[Abu]QLSAR[Orn]LLQDI[Nle]DR[Ava]-NH2 [[N-Me-Tyr1, Gln8, Orn12, Abu15, Orn21, Nle27, Asp28, Apa30]hGHRH(1-30)NH2]
11 | 3.02 nM | 1.44 JI-38 = 1 | [NMeY]ADAIFTNSYR[Orn]VL[Abu]QLSAR[Orn]LLQDI[Nle]SR[GABA]-NHMe [[N-Me-Tyr1, Orn12, Abu15, Orn21, Nle27, Gab30]hGHRH(1-30)NH-CH3]
12 | 3 nM | 1.45 JI-38 = 1 | [Desaminotyrosyl]ADAIFTQSYR[Orn]VL[Abu]QLSAR[Orn]LLQDI[Nle]DR-NHMe (not fully specified) [[Dat1, Gln8, Orn12, Abu15, Orn21, Nle27, Asp28]hGHRH(1-29)NH-CH3]
13 | 2.45 nM | 1.78 JI-38 = 1 | [Desaminotyrosyl]ADAIFTQSYH[Orn]VL[Abu]QLSAH[Orn]LLQDI[Nle]DR-NHMe (not fully specified) [[Dat1, Gln8, His11, Orn12, Abu15, His20, Orn21, Nle27, Asp28]hGHRH(1-29)NH-CH3]
14 | 1.99 nM | 2.18 JI-38 = 1 | [Desaminotyrosyl]ADAIFTQSYR[Orn]VL[Abu]QLSAR[Orn]LLQDI[Nle]DR[Ava]-NH2 (SMILES CCCC[C@H](NC(=O)[C@@H](NC(=O)[C@H](CC(=O)O)NC(=O)[C@H](CCC(N)=O)NC(=O)[C@H](CC(C)C)NC(=O)[C@H](CC(C)C)NC(=O)[C@H](CCCN)NC(=O)[C@H](CCCNC(=N)N)NC(=O)[C@H](C)NC(=O)[C@H](CO)NC(=O)[C@H](CC(C)C)NC(=O)[C@H](CCC(N)=O)NC(=O)[C@H](CC)NC(=O)[C@H](CC(C)C)NC(=O)[C@@H](NC(=O)[C@H](CCCN)NC(=O)[C@H](CCCNC(=N)N)NC(=O)[C@H](Cc1ccc(O)cc1)NC(=O)[C@H](CO)NC(=O)[C@H](CCC(N)=O)NC(=O)[C@@H](NC(=O)[C@H](Cc1ccccc1)NC(=O)[C@@H](NC(=O)[C@H](C)NC(=O)[C@H](CC(=O)O)NC(=O)[C@H](C)NC(=O)CCc1ccc(O)cc1)[C@@H](C)CC)[C@@H](C)O)C(C)C)[C@@H](C)CC)C(=O)N[C@@H](CC(=O)O)C(=O)N[C@@H](CCCNC(=N)N)C(=O)NCCCCC(N)=O) [[Dat1, Gln8, Orn12, Abu15, Orn21, Nle27, Asp28, Apa30]hGHRH(1-30)NH2]
15 | 1.22 nM | 3.57 JI-38 = 1 | [NMeY]ADAIFTQSYR[Orn]VL[Abu]QLSAR[Orn]LLQDI[Nle]SRQ-{GABA-NH2} [[N-Me-Tyr1, Gln8, Orn12, Abu15, Orn21, Nle27, Gln-Gab30]hGHRH(1-30)NH2]
16 | 0.82 nM | 5.3 JI-38 = 1 | [NMeY][dA]DAIFTQSYR[Orn]VL[Abu]QLSAR[Orn]LLQDI[Nle]D[Agmatine] [[N-Me-Tyr1, D-Ala2, Gln8, Orn12, Abu15, Orn21, Nle27, Asp28, Agm29]hGHRH(1-29)]
